The series in a line: total protein half-life in vivo (active degradation + dilution); higher = more stable protein.
Setting [1] is: E. coli NCM3722 delta-clpP delta-lon delta-hslV, growth: N-lim chemostat, doubling time 6 h.
The mark [2] stands for this setting: E. coli NCM3722 delta-clpP, growth: N-lim chemostat, doubling time 6 h.
The mark [3] stands for this setting: E. coli NCM3722 delta-hslV, growth: N-lim chemostat, doubling time 6 h.
Where [4] appears, read: E. coli NCM3722 delta-lon, growth: N-lim chemostat, doubling time 6 h.
[5] abbreviates: E. coli NCM3722 delta-smpB, growth: N-lim chemostat, doubling time 6 h.
The mark [6] stands for this setting: wild type E. coli NCM3722, growth: C-lim chemostat, doubling time 3 h.
[7] abbreviates: wild type E. coli NCM3722, growth: C-lim chemostat, doubling time 6 h.
Setting [8] is: wild type E. coli NCM3722, growth: C-lim chemostat, doubling time 12 h.
Where [9] appears, read: wild type E. coli NCM3722, growth: N-lim chemostat, doubling time 6 h.
Where [10] appears, read: wild type E. coli NCM3722, growth: N-lim chemostat, doubling time 12 h.
The mark [11] stands for this setting: wild type E. coli NCM3722, growth: P-lim chemostat, doubling time 6 h.
The mark [12] stands for this setting: wild type E. coli NCM3722, growth: P-lim chemostat, doubling time 12 h.

± gives the standard deviation of the averaged measurements.

For the sequence “MRCKGFLFDLDGTLVDSLPAVERAWSNWARRHGLAPEEVLAFIHGKQAITSLRHFMAGKSEADIAAEFTRLEHIEATETEGITALPGAIALLSHLNKAGIPWAIVTSGSMPVARARHKIAGLPAPEVFVTAERVKRGKPEPDAYLLGAQLLGLAPQECVVVEDAPAGVLSGLAAGCHVIAVNAPADTPRLNEVDLVLHSLEQITVTKQPNGDVIIQ”, the “total protein half-life in vivo” value reads like this: under setting [1], 4.84 ± 0.48 h; under setting [2], 5.45 ± 1.7 h; under setting [3], 4.91 ± 0.61 h; under setting [4], 5.46 ± 0.45 h; under setting [5], 3.992 ± 0.0097 h; under setting [6], 3.06 ± 0.1 h. Besides, the “total protein half-life in vivo” value amounted to 6.07 ± 0.31 h under setting [7]; 10.1 ± 0.43 h under setting [8]; 4.54 ± 0.39 h under setting [9]; 6.8 ± 0.18 h under setting [10]; 5.77 ± 0.43 h under setting [11]; 11.4 ± 0.17 h under setting [12].
As to “MAYTTFSQTKNDQLKEPMFFGQPVNVARYDQQKYDIFEKLIEKQLSFFWRPEEVDVSRDRIDYQALPEHEKHIFISNLKYQTLLDSIQGRSPNVALLPLISIPELETWVETWAFSETIHSRSYTHIIRNIVNDPSVVFDDIVTNEQIQKRAEGISSYYDELIEMTSYWHLLGEGTHTVNGKTVTVSLRELKKKLYLCLMSVNALEAIRFYVSFACSFAFAERELMEGNAKIIRLIARDEALHLTGTQHMLNLLRSGADDPEMAEIAEECKQECYDLFVQAAQQEKDWADYLFRDGSMIGLNKDILCQYVEYITNIRMQAVGLDLPFQTRSNPIPWINTWLVSDNVQVAPQEVEVSSYLVGQIDSEVDTDDLSNFQL”, the “total protein half-life in vivo” value is, setting by setting: under setting [1], 4.55 ± 0.57 h; under setting [2], 4.92 ± 1.1 h; under setting [3], 3.45 ± 0.054 h; under setting [4], 4.25 ± 0.52 h; under setting [5], 3.62 ± 0.26 h; under setting [6], 3.04 ± 0.28 h. In addition, the “total protein half-life in vivo” value reads like this: under setting [7], 5.7 ± 0.76 h; under setting [8], 9.25 ± 0.099 h; under setting [9], 3.415 ± 0.022 h; under setting [10], 5.12 ± 0.56 h; under setting [11], 5.24 ± 0.12 h; under setting [12], 9.5 ± 0.26 h.
Turning to “MGKLGENVPLLIDKAVDFMASSQAFREYLKKLPPRNAIPSGIPDESVPLYLQRLEYYRRLYRPKQVEGQ [Q2M7R5]”, the “total protein half-life in vivo” value amounted to 4.46 ± 1.4 h under setting [2]; 3.56 h under setting [3]; 3.4 h under setting [4]; 3.22 ± 0.16 h under setting [5]; 1.99 ± 0.42 h under setting [6]; 4.09 ± 0.43 h under setting [7]. Besides, the “total protein half-life in vivo” value is, setting by setting: under setting [8], 4.69 h; under setting [9], 2.94 ± 0.43 h; under setting [10], 4.57 ± 1.1 h; under setting [11], 3.73 ± 0.57 h; under setting [12], 8.27 ± 0.33 h.
In the case of “MSQNNPLRALLDKQDILLLDGAMATELEARGCNLADSLWSAKVLVENPELIREVHLDYYRAGAQCAITASYQATPAGFAARGLDEAQSKALIGKSVELARKAREAYLAENPQAGTLLVAGSVGPYGAYLADGSEYRGDYHCSVEAFQAFHRPRVEALLDAGADLLACETLPNFSEIEALAELLTAYPRARAWFSFTLRDSEHLSDGTPLRDVVALLAGYPQVVALGINCIALENTTAALQHLHGLTVLPLVVYPNSGEHYDAVSKTWHHHGEHCAQLADYLPQWQAAGARLIGGCCRTTPADIAALKARS”, the “total protein half-life in vivo” value by setting is: under setting [1], 6.94 ± 1.2 h; under setting [2], 4.714 ± 0.0092 h; under setting [3], 4.45 ± 0.15 h; under setting [4], 4.95 ± 0.14 h; under setting [5], 4.6036 ± 0.0045 h; under setting [6], 2.51 ± 0.23 h. Further, the “total protein half-life in vivo” value reads like this: under setting [7], 5.009 ± 0.032 h; under setting [8], 8.67 ± 1.6 h; under setting [9], 5.31 ± 0.38 h; under setting [10], 8.64 ± 0.12 h; under setting [11], 6.15 ± 0.4 h; under setting [12], 13 ± 0.82 h.
On to “MSSLINNAMSGLNAAQAALNTASNNISSYNVAGYTRQTTIMAQANSTLGAGGWVGNGVYVSGVQREYDAFITNQLRAAQTQSSGLTARYEQMSKIDNMLSTSTSSLATQMQDFFTSLQTLVSNAEDPAARQALIGKSEGLVNQFKTTDQYLRDQDKQVNIAIGASVDQINNYAKQIASLNDQISRLTGVGAGASPNNLLDQRDQLVSELNQIVGVEVSVQDGGTYNITMANGYSLVQGSTARQLAAVPSSADPSRTTVAYVDGTAGNIEIPEKLLNTGSLGGILTFRSQDLDQTRNTLGQLALAFAEAFNTQHKAGFDANGDAGEDFFAIGKPAVLQNTKNKGDVAIGATVTDASAVLATDYKISFDNNQWQVTRLASNTTFTVTPDANGKVAFDGLELTFTGTPAVNDSFTLKPVSDAIVNMDVLITDEAKIAMASEEDAGDSDNRNGQALLDLQSNSKTVGGAKSFNDAYASLVSDIGNKTATLKTSSATQGNVVTQLSNQQQSISGVNLDEEYGNLQRFQQYYLANAQVLQTANAIFDALINIR”, for which the “total protein half-life in vivo” value reads like this: under setting [1], 3.99 ± 0.38 h; under setting [2], over 8 h; under setting [3], over 8 h; under setting [5], over 8 h; under setting [6], 0.385 ± 0.15 h; under setting [7], 0.323 ± 0.065 h. Moreover, the “total protein half-life in vivo” value worked out at 0.835 ± 0.28 h under setting [8] and 5.22 ± 0.16 h under setting [9].
For the sequence “MPHSYDYDAIVIGSGPGGEGAAMGLVKQGARVAVIERYQNVGGGCTHWGTIPSKALRHAVSRIIEFNQNPLYSDHSRLLRSSFADILNHADNVINQQTRMRQGFYERNHCEILQGNARFVDEHTLALDCPDGSVETLTAEKFVIACGSRPYHPTDVDFTHPRIYDSDSILSMHHEPRHVLIYGAGVIGCEYASIFRGMDVKVDLINTRDRLLAFLDQEMSDSLSYHFWNSGVVIRHNEEYEKIEGCDDGVIMHLKSGKKLKADCLLYANGRTGNTDSLALQNIGLETDSRGQLKVNSMYQTAQPHVYAVGDVIGYPSLASAAYDQGRIAAQALVKGEATAHLIEDIPTGIYTIPEISSVGKTEQQLTAMKVPYEVGRAQFKHLARAQIVGMNVGTLKILFHRETKEILGIHCFGERAAEIIHIGQAIMEQKGGGNTIEYFVNTTFNYPTMAEAYRVAALNGLNRLF”, the “total protein half-life in vivo” value stood at 4.47 ± 0.55 h under setting [1]; 3.95 ± 0.2 h under setting [2]; 4.17 ± 0.28 h under setting [3]; 3.85 ± 0.34 h under setting [4]; 4.01 ± 0.21 h under setting [5]; 2.74 ± 0.36 h under setting [6]. In addition, the “total protein half-life in vivo” value by setting is: under setting [7], 6.09 ± 0.52 h; under setting [8], 10.5 ± 0.61 h; under setting [9], 4.46 ± 0.093 h; under setting [10], 6.87 ± 0.64 h; under setting [11], 6.15 ± 0.82 h; under setting [12], 12.2 ± 0.42 h.
As to “MNKYTINDITRASGGFAMLAVDQREAMRMMFAAAGAPAPVADSVLTDFKVNAAKALSPYASAILVDQQFCYRQVVEQNAIAKSCAMIVAADEFIPGNGIPVDSVVIDRKINPLQIKQDGGKALKLLVLWRSDEDAQQRLDMVKEFNELCHSHGLVSIIEPVVRPPRRGDKFDREQAIIDAAKELGDSGADLYKVEMPLYGKGPQQELLCASQRLNDHINMPWVILSSGVDEKLFPRAVRVAMTAGASGFLAGRAVWASVVGLPDNELMLRDVCAPKLQQLGDIVDEMMAKRR”, the “total protein half-life in vivo” value came to 5.2 ± 0.61 h under setting [1]; 4.38 ± 0.96 h under setting [2]; 4.42 ± 0.41 h under setting [3]; 5.52 ± 0.98 h under setting [4]; 4.09 ± 0.52 h under setting [5]; 2.93 ± 0.18 h under setting [6]. Further, the “total protein half-life in vivo” value was 6.51 ± 1.8 h under setting [7]; 8.63 ± 1.5 h under setting [8]; 4.19 ± 0.58 h under setting [9]; 6.3 ± 0.93 h under setting [10]; 5.05 ± 0.15 h under setting [11]; 10.2 ± 0.62 h under setting [12].

The values above are taken from the supplement of paper PMC11246515.
